According to patent US20180021429A1, “ANTICANCER AGENTS OR ANTIMETASTATIC AGENTS USING FSTL1 AND COMBINATION DRUG THEREOF” (PHARMA FOODS INTERNATIONAL CO., LTD., priority 2015, published 2018):

B1: #6-55: chicken-mouse chimeric anti-FSTL1 antibody clone; variable regions SEQ ID NO: 783 (light), 785 (heavy) (antibody, V domains shown)
VH: AVTLDESGGGLQTPGGALSLVCKGSGFTFTSVTMQWVRQAPGKGLEWVASVCSGSSTYYAPAVKGRATISRDNGQSTVRLQLSNLRPEDTGTYYCAKIAGRARWSCTSAAYNIDAWGHGTEVIVSS
VL: ASTQPSSVSAIPGETVKITCSGGGNNYGWYQQRSPGSAPVTVIYYNDNRPSNIPSRFSGSTSGSTSTLTITGVQADDEAIYYCGSWDSNTDSGIFGAGTTLTVL
modifications: mouse constant regions
B2: #5-2: chicken-mouse chimeric anti-FSTL1 antibody clone; variable regions SEQ ID NO: 763 (light), 765 (heavy) (antibody, V domains shown)
VH: AVTLDESGGGLQTPGGGLSLVCKGSGFTFSSFNMFWVRQAPGKGLEWVAGVGKDGGTGYGAAVDGRATISKDNGQSTLRLQLNNLRAEDTGTYYCAKAAGGCSYGWCGSYVGDIDAWGHGTEVIVSS
VL: ASTQPSSVSANPGEAVKITCSGGSGSYYGWYQQKSPGSAPVTVIYNNNQRPSDIPSRFSGSKSGSTATLTITGVQAEDEAVYFCGGYDSSTGHGGIFGAGTTLTVL
modifications: mouse constant regions
B3: #5-3: chicken-mouse chimeric anti-FSTL1 antibody clone; variable regions SEQ ID NO: 767 (light), 769 (heavy) (antibody, V domains shown)
VH: AVTLDESGGGLQTPGGALSLVCKGSGFSFSSFNMFWVRQAPGKGLEWVAGIGKDGVPKYGAAVDGRATISKDNGQSTMRLQLNNLRAEDTGTYFCAKAAGGCSYDWCGIYAGDIDTWGHGTEVIVSS
VL: ASTQPSSVSANPGETVKITCSGGSGYYYGWYQQKSPGSVPVTVIYNNNNRPSDIPSRFSGSKSGSTGTLTITGVRAEDEAVYYCGGYDNSGTGIFGAGTTLTVL
modifications: mouse constant regions
B4: #8-4: chicken-mouse chimeric anti-FSTL1 antibody clone; variable regions SEQ ID NO: 795 (light), 797 (heavy) (antibody, V domains shown)
VH: AVTLDESGGGLQTPGGGLSLVCKGSGFTLSSFNMFWVRQAPGKGLEWVAGVGKDGGTAYGAAVDGRATISRDSGQSTVRLQLNNLRAEDTGTYFCAKAAGGCSYSWCGAYVGDLDAWGHGTEVIVSS
VL: ASSQPSSVSANPGETVKITCSGGSGYYYGWYQQKSPGSAPVTVIYNNDNKPSDIPSRFSGSKSGSTGTLTITGVQVEDEAVYFCGGYDNSGTGIFGAGTTLTVL
modifications: mouse constant regions
B5: #8-7: chicken-mouse chimeric anti-FSTL1 antibody clone; variable regions SEQ ID NO: 799 (light), 801 (heavy) (antibody, V domains shown)
VH: AVTLDESGGGLQTPGGGLSLVCKGSGFTFSSFNMFWVRQAPGKGLEWVAGIGKDGVPKYGAAVDGRATISKDNGQSTLRLQLNNLRAEDTGTYFCAKAAGGCSYDWCGIYAGDIDTWGHGTEVIVSS
VL: ASTQPSSVSANPGEAVKITCSGGSGSYYGWYQQKSPGSAPVTVIYNNNQRPSDIPSRFSGSKSGSTATLTITGVQAEDEAVYFCGGYDSSTGHGGIFGAGTTLTVL
modifications: mouse constant regions
B6: #5-8: chicken-mouse chimeric anti-FSTL1 antibody clone; variable regions SEQ ID NO: 771 (light), 773 (heavy) (antibody, V domains shown)
VH: AVTLDESGGGLQTPGGGLSLVCKGSGFTFSSFNMFWVRQAPGKGLEWVAGIGKDGVPKYGTAVDGRATISKDNGQSTMRLQLNNLRAEDTGTYFCAKAAGGCSYDWCGIYTGDIDTWGHGTEVIVSS
VL: ASTQPSSVSANPGEAVKITCSGGSGSYYGWYQQKSPGSAPVTVIYNNNQRPSDIPSRFSGSKSGSTATLTITGVQAEDEAVYFCGGYDSSTGHGGIFGAGTTLTVL
modifications: mouse constant regions

Test system: human pancreatic cancer cell line Panc1
Test: Inhibition of activation of tumor cells by FSTL1, Panc1 (Examples 5, 7, 9, 10, 11)
Assay type: cell-based
Description: It is known that tumor cells activated by stimulation with FSTL1 highly express molecule groups promoting bone metastasis and increase metastatic invasive capacity (Cancer Research 73: 6185, 2013). Thus, 2×10^7 cells/well of a human pancreatic cancer cell line Panc1 were suspended in 1 mL/well of D-MEM medium (GIBCO/Thermo Fisher Scientific Inc. Cat. No. C11885500BT) containing 10% fetal bovine serum, supplemented with 50 ng/mL (final concentration) of FSTL1 (R&D Systems, Inc.) and 10 μg/mL of the anti-FSTL1 antibody (#5-2, #5-8, #5-10, #5-43, #6-55, or #7-34) or its isotype mouse IgG (anti-DNP antibody) as a control antibody “Control”, and cultured under stimulation (6-well plate). 3 days thereafter, the number of cells was counted while the cells were stained with a PE-labeled anti-RANKL antibody (eBioscience Cat. No. 12-6619) and a PE-labeled anti-CCR2 antibody (R&D Systems, Inc. Cat. No. FAB151P) in order to examine the expression of markers indicating bone metastatic properties, and the contents of RANKL-positive cells and CCR2-positive cells were analyzed by flow cytometry using FACScan (Becton, Dickinson and Company) to calculate the numbers of cells per culture. […] Therefore, in Examples below, judgment was made with the number of cells as an index.
(§1) In the same way as in Example 5, a human pancreatic cancer cell line Panc1 was supplemented with 50 ng/mL (final concentration) of FSTL1 (R&D Systems, Inc.) and 10 μg/mL of the anti-FSTL1 antibody (the same clones as in Example 6) or a control antibody and cultured under stimulation. 3 days thereafter, the number of cells was counted while the cells were stained with a PE-labeled anti-RANKL antibody and a PE-labeled anti-CCR2 antibody, and the contents of RANKL-positive cells and CCR2-positive cells were analyzed by flow cytometry using FACScan (Becton, Dickinson and Company) to calculate the numbers of cells per culture (FIG. 99B).
as §1, with “20” for “50”, “FSTL1” for “FSTL1 (R&D Systems, Inc.)”, “(#5-2, #5-8, or #6-55)” for “(the same clones as in Example 6)”, “100B).” for “99B).”
as §1, with “FSTL1” for “FSTL1 (R&D Systems, Inc.)”, “(#5-2, #5-3, #6-55, #7-34, #8-1, #8-4, #8-7, or #8-8)” for “(the same clones as in Example 6)”, “culture.” for “culture (FIG. 99B).”
as §1, with “FSTL1” for “FSTL1 (R&D Systems, Inc.)”, “(#6-55)” for “(the same clones as in Example 6)”, “culture.” for “culture (FIG. 99B).”

[1] = Example 9: 20 ng/mL FSTL1, 10 μg/mL antibody, 3 days, FIG. 100B
[2] = Example 10: 50 ng/mL FSTL1, 10 μg/mL antibody, 3 days
[3] = Example 7: 50 ng/mL FSTL1, 10 μg/mL antibody, 3 days, FIG. 99B

Molecule | inhibitory activity against the expansion of RANKL-positive cells and CCR2-positive cells [1] | inhibitory activity against the expansion of RANKL-positive cells and CCR2-positive cells [2] | inhibitory activity against the expansion of RANKL-positive cells and CCR2-positive cells [3] | further results
B1 | exhibited inhibitory activity |  |  | inhibitory activity against the expansion of RANKL-positive cells and CCR2-positive cells (Example 11: 50 ng/mL FSTL1, at all tested doses (5, 10 and 20 μg/mL), no dose dependence, FIG. 100D): ~100%
B2 |  | high inhibitory activity |  | 
B3 |  |  | higher inhibitory activity | 
B4 |  | high inhibitory activity |  | 
B5 |  | high inhibitory activity |  | 
B6 | exhibited inhibitory activity |  | higher inhibitory activity | 
